Molecular target: dengue virus envelope protein (dengue virus serotype 2 strain New Guinea C)
Test: proximity ligation

dengue virus capsid protein (natural protein)
PLA foci per cell (WT cells) (foci per cell): 11 | PLA foci per cell (YBX1 KO1 cells) (foci per cell): 5 | PLA foci per cell (YBX1 KO2 cells) (foci per cell): 7

dengue virus prM protein (natural protein)
PLA foci per cell (WT cells) (foci per cell): 26 | PLA foci per cell (YBX1 KO1 cells) (foci per cell): 58 | PLA foci per cell (YBX1 KO2 cells) (foci per cell): 27
